{
  "source": "paper PMC9355967",
  "about": "(Nature Communications, 2022)",
  "binders": {"B1": {"name": "purified SCRIB PDZ1 domain (718-820) (domain or fragment)", "chain": "not shown", "notes": "15N-labelled in one NMR experiment; GST probably cut off with thrombin (it was mixed with GST fusions on glutathione beads); source: E. coli BL21, purified (glutathione resin, thrombin cleavage or glutathione elution, SEC)"}},
  "key": {"[1]": {"molecular_target": "T1, purified AFDN FHA domain, C-terminally extended (371-580) (mouse, UniProt Q9QZQ1 371-580)", "T1 construct": "15N-labelled in one NMR experiment; GST probably cut off with thrombin; also called extended FHA domain; source: E. coli BL21, purified (glutathione resin, thrombin cleavage or glutathione elution, SEC)", "T1 sequence (looked up)": "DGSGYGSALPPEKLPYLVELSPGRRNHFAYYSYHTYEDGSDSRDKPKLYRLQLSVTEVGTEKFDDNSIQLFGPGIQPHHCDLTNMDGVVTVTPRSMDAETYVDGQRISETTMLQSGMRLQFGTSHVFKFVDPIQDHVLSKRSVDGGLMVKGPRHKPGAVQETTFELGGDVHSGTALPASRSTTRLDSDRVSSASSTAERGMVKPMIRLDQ", "experiment": "ITC; MicroCal ITC200, 25 °C, 20 mM Tris-HCl pH 7.5, 20 mM NaCl, 1 mM DTT", "conditions": "both partners purified"}, "[2]": {"molecular_target": "T1, purified AFDN FHA domain, C-terminally …", "experiment": "ITC; MicroCal ITC200, 25 °C, 20 mM Tris-HCl pH 7.5, 150 mM NaCl, 1 mM DTT", "conditions": "both partners purified"}},
  "data": [
    {"binder": "B1", "values": [
      {"measurement": "Kd", "setting": "[1]", "result": 5.7, "unit": "µM"},
      {"measurement": "Kd", "setting": "[2]", "result": 14.8, "unit": "µM"}
    ]}
  ]
}
